Consider two substances from EP1034789A1.

The target in assay [1] is cellular receptor of fMLP (human). The experiment in a line: 3H-fMLP bound to cells, Exp. 1, no inhibitor.
The target is the same in assay [2]. In words: 3H-fMLP bound to cells, Exp. 1, with unlabeled fMLP.
Assay [3] concerns the target cellular receptors of MIP-1α on primary human monocytes and THP-1 cells (human). The experiment in a line: 125I-MIP-1α bound to primary human monocytes, Exp. 1, 6500X excess unlabeled MIP-1α (background control).
The target is the same in assay [4]. In words: 125I-MIP-1α bound to primary human monocytes, Exp. 1, no inhibitor.
Assay [5] has the same target. The experiment in a line: 125I-MIP-1α bound to primary human monocytes, Exp. 2, no inhibitor.
Assay [6] has the same target. The experiment in a line: 125I-MIP-1α bound to human monocytic cells, Exp. 1, no inhibitor.
For assay [7] the target is unchanged. In words: 125I-MIP-1α bound to THP-1 cells, Exp. 3, no inhibitor.
The target is the same in assay [8]. In words: 125I-MIP-1α bound to primary human monocytes, Exp. 2, 6500X excess unlabeled MIP-1α (background control).
The target is the same in assay [9]. The experiment in a line: 125I-MIP-1α bound to THP-1 cells, Exp. 3, 6500X excess unlabeled MIP-1α (background control).
For assay [10] the target is unchanged. The experiment in a line: 125I-MIP-1α bound to human monocytic cells, Exp. 1, 6500X molar excess unlabeled MIP-1α (background control).

Take fMLP (peptide): the Surface Bound fMLP was 374 cpm in assay [1] and 132 cpm in assay [2].

“human MIP-1α (from UniProt P10147 24-92) (ligand)”: the Surface Bound MIP-1α in assay [3] was 470 cpm; in assay [4], 4700 cpm; in assay [5] it was 7710 cpm; in assay [6] it was 12200 cpm; in assay [7], 9940 cpm; in assay [8] it was 410 cpm. Further, the Surface Bound MIP-1α in assay [9] was found to be 1040 cpm; in [10], 444 cpm.
